Peptide text beside a SMILES is read from it. * marks the point of attachment. Palmitoyl = CCCCCCCCCCCCCCCC(=O)*; Myristoyl = CCCCCCCCCCCCCC(=O)*; Octanoyl = CCCCCCCC(=O)*; Butyryl = CCCC(=O)*
Columns and labels:
[1] = test system: PTC (primary colon) tumor cells; assay: MTT cytotoxicity assay, PTC cells; type: cell-based, human; settings: 48 hours
Description: (§1) The cytotoxic effect of Lipo peptide analogs, DT-A1 (SEQ ID NO: 2), DT-B1 (SEQ ID NO: 3), DT-01 (SEQ ID NO: 4), DT-M1 (SEQ ID NO: 5) and DT-P1 (SEQ ID NO: 6) was studied by MTT assay which is based on the principle of uptake of MTT [3-[4,5-dimethylthiazol-2-yl]-2,5-diphenyl tetrazolium bromide], a tetrazolium salt by the metabolically active cells where it is metabolized by active mitochondria into a blue colored formazan product which can be read spectrophotometrically. Briefly, tumor cells PTC (primary colon) KB (Oral squamous), U87MG (Glioblastoma), HBL100 (Breast), HeP2 (Laryngeal), ECV304 (Endothelial), PA-1 (Ovary) and L132 (Lung) were incubated with the peptide analogs for 48 hours at 37° C. in a 96-well culture plate, followed by the addition of 100 μg MTT and _further incubation of 1 hour. The formazan crystals formed inside the cells were dissolved with a detergent comprising 10% Sodium dodecyl sulfate and 0.01 N HCl and optical density read on a multiscan ELISA reader. The optical density was directly proportional to the number of proliferating and metabolically active cells.

[2] = test system: KB (Oral squamous) tumor cells; assay: MTT cytotoxicity assay, KB cells; type: cell-based; settings: 48 hours
Description: as §1

[3] = test system: U87MG (Glioblastoma) tumor cells; assay: MTT cytotoxicity assay, U87MG cells; type: cell-based; settings: 48 hours
Description: as §1

[4] = test system: HBL100 (Breast) tumor cells; assay: MTT cytotoxicity assay, HBL100 cells; type: cell-based; settings: 48 hours
Description: as §1

[5] = test system: HeP2 (Laryngeal) tumor cells; assay: MTT cytotoxicity assay, HeP2 cells; type: cell-based; settings: 48 hours
Description: as §1

[6] = test system: L132 (Lung) tumor cells; assay: MTT cytotoxicity assay, L132 cells; type: cell-based; settings: 48 hours
Description: as §1

[7] = test system: PA-1 (Ovary) tumor cells; assay: MTT cytotoxicity assay, PA-1 cells; type: cell-based; settings: 48 hours
Description: as §1

[8] = test system: ECV304 (Endothelial) cells; assay: MTT cytotoxicity assay, ECV304 cells; type: cell-based; settings: 48 hours
Description: as §1

[9] = test system: human colon adenocarcinoma (PTC) xenografts; assay: Antitumor activity in PTC xenografts in nude mice; type: in vivo
Experimental: The antitumor activity of DT-B1 (SEQ ID NO: 3) was studied in human colon adenocarcinoma (PTC) xenografts in nude mice. PTC tumor xenografts were grown in Balb/c a thymic mice by subcutaneous inoculation of a single cell suspension of PTC cells (15×10^6 cells/100 EL). The tumor bearing animals were divided into 2 groups of three animals each including one group comprising untreated control animals. Treatment with DT-B1 was initiated when the average tumor volumes, as measured using a vernier caliper, were between 1.3 cm^3. Solutions of DT-B1 was prepared at a concentration of 126 μg/ml and intravenously administered to the assigned group of tumor bearing animals at a dose of 12.6 μg/100 μL twice a day so that the total dose of 25.2 μg/day was administered to each animal. The treatment was continued for a period of 14 days.
The antitumor activity of the compounds was monitored by measuring tumor volumes every fourth day using the formula W*W*L*0.4 (W=smaller diameter, L=larger diameter). The percentage inhibition of tumor growth was calculated using the formula (1-tumor volume-treated/tumor volume-control)* 100.

| Molecule | Percentage cytotoxicity ([2]; 1 nM) [%] | Percentage cytotoxicity ([2]; 10 nM) [%] | Percentage cytotoxicity ([2]; 100 nM) [%] | Percentage cytotoxicity ([2]; 1 μM) [%] | Percentage cytotoxicity ([3]; 1 nM) [%] | Percentage cytotoxicity ([3]; 10 nM) [%] | Percentage cytotoxicity ([3]; 100 nM) [%] | Percentage cytotoxicity ([3]; 1 μM) [%] | Percentage cytotoxicity ([4]; 1 nM) [%] | Percentage cytotoxicity ([4]; 10 nM) [%] | Percentage cytotoxicity ([4]; 100 nM) [%] | Percentage cytotoxicity ([5]; 1 nM) [%] | Percentage cytotoxicity ([5]; 10 nM) [%] | Percentage cytotoxicity ([5]; 100 nM) [%] | Percentage cytotoxicity ([5]; 1 μM) [%] | Percentage cytotoxicity ([6]; 1 nM) [%] | Percentage cytotoxicity ([6]; 10 nM) [%] | Percentage cytotoxicity ([6]; 100 nM) [%] | Percentage cytotoxicity ([6]; 1 μM) [%] | Percentage cytotoxicity ([7]; 1 nM) [%] | also measured |
| --- | --- | --- | --- | --- | --- | --- | --- | --- | --- | --- | --- | --- | --- | --- | --- | --- | --- | --- | --- | --- | --- |
| CCCCCCCCCCCCCC(=O)N[C@@H](CC(C)C)C(=O)N[C@@H](CCSC)C(=O)N[C@@H](Cc1ccc(O)cc1)C(=O)N1CCC[C@H]1C(=O)N[C@H](C(=O)N[C@@H](Cc1ccc(O)cc1)C(=O)N[C@@H](CC(C)C)C(=O)N[C@@H](CCCCN)C(=O)O)[C@@H](C)O [DT-M1, Myristoyl-Leu-Met-Tyr-Pro-Thr-Tyr-Leu-Lys-OH] (Myristoyl-LMYPTYLK-OH) | 21.0 ± 26 | 23.9 ± 3.1 | 19.0 ± 3.2 | 12.9 ± 1.6 | 29.4 ± 1.2 | 44.9 ± 2.7 | 32.2 ± 2.2 | 5.0 ± 2.5 | 21.9 ± 2.4 | 31.6 ± 3.8 | 30.4 ± 2.4 | 15.8 ± 2.2 | 18.7 ± 2.2 | 22.9 ± 1.3 | 12.9 ± 1.2 | 10.6 ± 1.9 | 26.7 ± 1.1 | 16.8 ± 2.1 | 9.6 ± 2.4 | 27.5 ± 2.9 | Percentage cytotoxicity ([1]; 1 nM): 26 ± 0.5%; Percentage cytotoxicity ([1]; 10 nM): 25 ± 3.6%; Percentage cytotoxicity ([1]; 100 nM): 31 ± 4.6%; Percentage cytotoxicity ([1]; 1 μM): 30 ± 3.9%; Percentage cytotoxicity ([4]; 1 μM): 29.6 ± 2.3%; Percentage cytotoxicity ([7]; 10 nM): 42.0 ± 2.2%; Percentage cytotoxicity ([7]; 100 nM): 25.9 ± 3.3%; Percentage cytotoxicity ([7]; 1 μM): 15.7 ± 1.2%; Percentage cytotoxicity ([8]; 1 nM): 21.9 ± 1.6%; Percentage cytotoxicity ([8]; 10 nM): 16.9 ± 3.1%; Percentage cytotoxicity ([8]; 100 nM): 22.9 ± 1.0%; Percentage cytotoxicity ([8]; 1 μM): 17.7 ± 1.2% |
| Ac-LMYPTYLK-OH [DT-A1, Acetyl-Leu-Met-Tyr-Pro-Thr-Tyr-Leu-Lys-OH] | 25.9 ± 1.6 | 31.0 ± 2.1 | 26.9 ± 2.1 | 21.0 ± 2.3 | 10.4 ± 1.3 | 29.9 ± 2.2 | 26.9 ± 1.5 | 21.9 ± 1.4 | 19.9 ± 3.5 | 31.9 ± 3.5 | 30.5 ± 1.3 | 14.9 ± 2.2 | 39.9 ± 1.8 | 21.9 ± 2.7 | 19.7 ± 1.1 | 13.9 ± 2.9 | 26.4 ± 3.2 | 14.6 ± 3.1 | 12.9 ± 2.4 | 21.9 ± 1.5 | Percentage cytotoxicity ([4]; 1 μM): 28.9 ± 1.2%; Percentage cytotoxicity ([7]; 10 nM): 24.9 ± 2.6%; Percentage cytotoxicity ([7]; 100 nM): 18.5 ± 2.3%; Percentage cytotoxicity ([7]; 1 μM): 6.9 ± 3.2%; Percentage cytotoxicity ([8]; 1 nM): 8.0 ± 2.5%; Percentage cytotoxicity ([8]; 10 nM): 16.5 ± 3.4%; Percentage cytotoxicity ([8]; 100 nM): 22.0 ± 2.3%; Percentage cytotoxicity ([8]; 1 μM): 10.8 ± 3.4% |
| Palmitoyl-Leu-Met-Tyr-Pro-Thr-Tyr-Leu-Lys-OH (Palmitoyl-LMYPTYLK-OH) [DT-P1] | 21.9 ± 2.6 | 32.0 ± 2.1 | 23.0 ± 2.2 | 18.0 ± 2.6 | 9.6 ± 1.8 | 34.0 ± 2.6 | 32.9 ± 2.5 | 18.4 ± 2.4 | 25.7 ± 2.5 | 34.9 ± 3.6 | 33.3 ± 1.4 | 13.9 ± 1.2 | 24.9 ± 2.8 | 28.9 ± 1.7 | 14.9 ± 1.3 | 10.9 ± 1.9 | 29.0 ± 1.2 | 19.6 ± 1.1 | 17.8 ± 2.2 | 20.5 ± 1.9 | Percentage cytotoxicity ([1]; 1 nM): 27 ± 3.1%; Percentage cytotoxicity ([1]; 10 nM): 21 ± 1.2%; Percentage cytotoxicity ([1]; 100 nM): 33 ± 1.1%; Percentage cytotoxicity ([1]; 1 μM): 31 ± 3.1%; Percentage cytotoxicity ([4]; 1 μM): 28.9 ± 1.3%; Percentage cytotoxicity ([7]; 10 nM): 21.9 ± 2.2%; Percentage cytotoxicity ([7]; 100 nM): 25.6 ± 3.3%; Percentage cytotoxicity ([7]; 1 μM): 21.7 ± 2.2%; Percentage cytotoxicity ([8]; 1 nM): 18.8 ± 2.6%; Percentage cytotoxicity ([8]; 10 nM): 19.9 ± 3.4%; Percentage cytotoxicity ([8]; 100 nM): 31.9 ± 1.3%; Percentage cytotoxicity ([8]; 1 μM): 25.9 ± 1.4% |
| n-Butanoyl-Leu-Met-Tyr-Pro-Thr-Tyr-Leu-Lys-OH (Butyryl-LMYPTYLK-OH) [DT-B1] | 21.9 ± 0.5 | 25.9 ± 4.1 | 18.9 ± 3.2 | 14.8 ± 2.3 | 33.9 ± 0.6 | 39.7 ± 2.7 | 30.7 ± 1.7 | 20.6 ± 1.7 | 33.0 ± 1.5 | 34.8 ± 1.8 | 33.9 ± 2.8 | 8.7 ± 1.5 | 22.9 ± 1.6 | 14.9 ± 5.3 | 12.9 ± 4.4 | 13.9 ± 1.9 | 26.8 ± 1.9 | 10.7 ± 2.6 | 11.8 ± 2.3 | 43.9 ± 2.9 | Percentage cytotoxicity ([1]; 1 nM): 36 ± 1.0%; Percentage cytotoxicity ([1]; 10 nM): 44 ± 1.3%; Percentage cytotoxicity ([1]; 100 nM): 48 ± 1.7%; Percentage cytotoxicity ([1]; 1 μM): 31 ± 1.5%; Percentage cytotoxicity ([4]; 1 μM): 32.8 ± 2.2%; Percentage cytotoxicity ([7]; 10 nM): 45.8 ± 1.2%; Percentage cytotoxicity ([7]; 100 nM): 38.5 ± 1.6%; Percentage cytotoxicity ([7]; 1 μM): 33.7 ± 1.6%; Percentage cytotoxicity ([8]; 1 nM): 18.7 ± 5.3%; Percentage cytotoxicity ([8]; 10 nM): 19.9 ± 4.2%; Percentage cytotoxicity ([8]; 100 nM): 31.9 ± 2.8%; Percentage cytotoxicity ([8]; 1 μM): 25.8 ± 2.3%; percentage inhibition of tumor growth as compared to controls ([9]; day 20, intravenous 12.6 μg twice a day (25.2 μg/day) for 14 days, PTC xenografts in nude mice): 95.85%; antitumor activity on PTC xenografts (in words) ([9]; intravenous 25.2 μg/day for 14 days, tumor kinetics till day 20): significant antitumor activity |
| n-Octanoyl-Leu-Met-Tyr-Pro-Thr-Tyr-Leu-Lys-OH (Octanoyl-LMYPTYLK-OH) [DT-O1] | 21.0 ± 0.6 | 34.9 ± 3.1 | 26.9 ± 2.2 | 23.9 ± 1.3 | 37.0 ± 1.6 | 38.7 ± 1.7 | 28.6 ± 1.2 | 21.9 ± 1.5 | 30.0 ± 1.4 | 33.7 ± 2.8 | 32.8 ± 2.8 | 8.6 ± 2.5 | 22.9 ± 1.2 | 17.9 ± 2.3 | 18.8 ± 4.2 | 19.4 ± 2.9 | 25.9 ± 1.7 | 14.9 ± 2.5 | 7.9 ± 2.3 | 26.0 ± 3.9 | Percentage cytotoxicity ([1]; 1 nM): 28 ± 5.4%; Percentage cytotoxicity ([1]; 10 nM): 32 ± 0.3%; Percentage cytotoxicity ([1]; 100 nM): 33 ± 3.2%; Percentage cytotoxicity ([1]; 1 μM): 29 ± 5.5%; Percentage cytotoxicity ([7]; 10 nM): 37.8 ± 2.2%; Percentage cytotoxicity ([7]; 100 nM): 22.6 ± 3.6%; Percentage cytotoxicity ([7]; 1 μM): 6.0 ± 1.4%; Percentage cytotoxicity ([8]; 1 nM): 16.9 ± 1.3%; Percentage cytotoxicity ([8]; 10 nM): 27.9 ± 3.2%; Percentage cytotoxicity ([8]; 100 nM): 24.9 ± 2.4%; Percentage cytotoxicity ([8]; 1 μM): 23.9 ± 2.2% |

— patent US6828304B1, “Peptides for treatment of cancer” (Dabur Research Foundation, priority 2000, dated 2004)
